From paper PMC10206079, “Bioinformatics of cyanophycin metabolism genes and characterization of promiscuous isoaspartyl dipeptidases that catalyze the final step of cyanophycin degradation” (Scientific Reports, 2023)

Assays:
LmIadA = target: T1, LmIadA (Leucothrix mucor, UniProt A0AA82WPE9); experiment: coupled Asp release assay (aspartate aminotransferase / malate dehydrogenase, NADH at […] nm); type: biochemical; conditions: 1 mM dipeptide, 500 nM enzyme, 100 mM HEPES pH 8.2, 20 mM KCl
T1 construct: C-terminal TEV site and 8xHis tag (cut for structural work only); expressed in E. coli BL21(DE3); homooctamer, zinc enzyme

[1] = target: Leucothrix mucor DSM2157 isoaspartyl dipeptidase (LmIadA), purified enzyme as examined in solution (Leucothrix mucor DSM2157); experiment: not stated; purified enzyme in solution; shown in Supplementary Fig. S2; the method is not given
[2] = target: Leucothrix mucor DSM2157 isoaspartyl dipeptidase (LmIadA), as crystallised (Leucothrix mucor DSM2157); experiment: crystal structure; LmIadA 20 mg/ml, sitting drop, 0.56 M NaH2PO4 and 1.04 M K2HPO4, 22 °C; 1.8 Å; molecular replacement with PDB 1YBQ
[3] = target: Roseivivax halodurans DSM15395 isoaspartyl aminopeptidase (RhIaaA), heterodimer of subunits a and b (Roseivivax halodurans DSM15395); experiment: not stated; purified enzyme in solution; shown in Supplementary Fig. S2; the method is not given
[4] = target: Roseivivax halodurans DSM15395 isoaspartyl aminopeptidase (RhIaaA), heterodimer of subunits a and b (Roseivivax halodurans DSM15395); experiment: crystal structure; RhIaaA 10 mg/ml, sitting drop, 0.1 M bis-tris propane pH 8.5, 0.2 M disodium malonate, 25% PEG3350, 4 °C; 2.7 Å; molecular replacement with PDB 2ZAL

N=C(N)NCCC[C@H](NC(=O)C[C@H](N)C(=O)O)C(=O)O [β-Asp-Arg]
coupled Asp release assay (aspartate aminotransferase / malate dehydrogenase, NA) (LmIadA): it displayed no apparent preference towards β-Asp-Arg/Lys (Fig. 2a)

Leucothrix mucor DSM2157 isoaspartyl dipeptidase (LmIadA), purified enzyme as examined in solution
stoichiometry N [1]: 8

Leucothrix mucor DSM2157 isoaspartyl dipeptidase (LmIadA), as crystallised (enzyme)
stoichiometry N [2]: 8

NCCCC[C@H](NC(=O)C[C@H](N)C(=O)O)C(=O)O [β-Asp-Lys]
coupled Asp release assay (aspartate aminotransferase / malate dehydrogenase, NA) (LmIadA): it displayed no apparent preference towards β-Asp-Arg/Lys (Fig. 2a)

Roseivivax halodurans DSM15395 isoaspartyl aminopeptidase (RhIaaA), heterodimer of subunits a and b (complex)
stoichiometry N [3]: 2
stoichiometry N [4]: 2
